In patent US20060270591A1 (published 2006):

Key:
[1] = target: T1, GST-ARA267C (ARA267 aa 1716-2427) (human, UniProt Q96L73 1985-2696); assay: GST pull-down
T1 sequence: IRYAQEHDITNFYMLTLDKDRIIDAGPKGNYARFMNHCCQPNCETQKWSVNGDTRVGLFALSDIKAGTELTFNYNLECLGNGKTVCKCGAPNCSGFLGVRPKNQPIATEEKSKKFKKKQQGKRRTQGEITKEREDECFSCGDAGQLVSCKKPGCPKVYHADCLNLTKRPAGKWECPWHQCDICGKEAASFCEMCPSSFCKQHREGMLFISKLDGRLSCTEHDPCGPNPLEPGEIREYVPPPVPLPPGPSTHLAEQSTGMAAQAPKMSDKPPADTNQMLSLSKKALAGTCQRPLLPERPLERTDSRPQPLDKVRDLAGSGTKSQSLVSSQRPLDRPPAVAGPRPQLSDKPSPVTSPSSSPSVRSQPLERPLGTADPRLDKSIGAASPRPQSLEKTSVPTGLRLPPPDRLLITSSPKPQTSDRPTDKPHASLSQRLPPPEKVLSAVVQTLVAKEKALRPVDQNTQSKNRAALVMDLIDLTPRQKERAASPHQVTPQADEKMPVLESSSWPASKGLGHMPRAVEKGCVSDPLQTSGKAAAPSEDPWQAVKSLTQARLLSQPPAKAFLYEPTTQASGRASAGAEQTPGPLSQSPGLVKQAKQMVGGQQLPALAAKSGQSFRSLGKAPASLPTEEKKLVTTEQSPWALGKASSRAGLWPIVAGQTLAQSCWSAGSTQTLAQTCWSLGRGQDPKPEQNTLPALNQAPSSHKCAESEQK

[2] = target: T2, GST-ARA267N2 (ARA267 aa 1-984) (human, UniProt Q96L73 280-1253); assay: GST pull-down
T2 sequence: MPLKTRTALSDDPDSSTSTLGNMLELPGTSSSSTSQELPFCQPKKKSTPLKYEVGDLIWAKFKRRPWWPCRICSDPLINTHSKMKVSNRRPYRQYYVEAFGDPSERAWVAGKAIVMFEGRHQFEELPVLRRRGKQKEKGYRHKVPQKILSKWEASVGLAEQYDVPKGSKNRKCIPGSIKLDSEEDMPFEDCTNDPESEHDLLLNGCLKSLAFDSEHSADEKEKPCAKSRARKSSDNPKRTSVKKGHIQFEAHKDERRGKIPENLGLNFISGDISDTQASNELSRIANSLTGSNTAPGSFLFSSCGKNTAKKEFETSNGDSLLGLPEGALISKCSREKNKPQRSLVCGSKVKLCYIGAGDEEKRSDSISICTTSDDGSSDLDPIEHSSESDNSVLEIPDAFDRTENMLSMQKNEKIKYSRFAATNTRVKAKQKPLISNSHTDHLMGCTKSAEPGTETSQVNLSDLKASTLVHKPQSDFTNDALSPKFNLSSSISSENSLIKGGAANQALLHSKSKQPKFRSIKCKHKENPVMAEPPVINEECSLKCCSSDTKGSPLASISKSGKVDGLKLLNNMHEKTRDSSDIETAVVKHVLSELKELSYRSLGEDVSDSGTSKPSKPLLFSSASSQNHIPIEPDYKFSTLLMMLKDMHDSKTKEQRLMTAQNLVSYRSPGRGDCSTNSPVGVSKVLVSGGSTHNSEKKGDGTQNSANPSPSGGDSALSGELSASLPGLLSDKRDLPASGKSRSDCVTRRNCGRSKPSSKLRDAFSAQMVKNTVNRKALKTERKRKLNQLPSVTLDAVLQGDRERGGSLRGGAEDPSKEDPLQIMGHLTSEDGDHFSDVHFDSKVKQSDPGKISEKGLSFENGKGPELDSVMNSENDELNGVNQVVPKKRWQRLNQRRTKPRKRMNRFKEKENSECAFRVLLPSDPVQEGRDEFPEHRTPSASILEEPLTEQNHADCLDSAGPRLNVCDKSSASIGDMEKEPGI

[3] = target: T3, GAL4 empty vector (GAL4 DBD alone) (UniProt P04386 1-147); assay: mammalian two-hybrid, DU145, CAT
T3 construct: range 1-147; Control
T3 sequence (P04386 1-147 limits assumed): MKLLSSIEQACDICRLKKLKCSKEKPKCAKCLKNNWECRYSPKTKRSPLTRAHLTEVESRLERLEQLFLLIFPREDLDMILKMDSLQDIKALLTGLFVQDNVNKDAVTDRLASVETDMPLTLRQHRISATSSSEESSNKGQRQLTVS

[4] = target: T4, VP16 fused near full-length AR (nAR, aa 36-918) (human, UniProt P10275 36-919); assay: mammalian two-hybrid, DU145, CAT
T4 sequence: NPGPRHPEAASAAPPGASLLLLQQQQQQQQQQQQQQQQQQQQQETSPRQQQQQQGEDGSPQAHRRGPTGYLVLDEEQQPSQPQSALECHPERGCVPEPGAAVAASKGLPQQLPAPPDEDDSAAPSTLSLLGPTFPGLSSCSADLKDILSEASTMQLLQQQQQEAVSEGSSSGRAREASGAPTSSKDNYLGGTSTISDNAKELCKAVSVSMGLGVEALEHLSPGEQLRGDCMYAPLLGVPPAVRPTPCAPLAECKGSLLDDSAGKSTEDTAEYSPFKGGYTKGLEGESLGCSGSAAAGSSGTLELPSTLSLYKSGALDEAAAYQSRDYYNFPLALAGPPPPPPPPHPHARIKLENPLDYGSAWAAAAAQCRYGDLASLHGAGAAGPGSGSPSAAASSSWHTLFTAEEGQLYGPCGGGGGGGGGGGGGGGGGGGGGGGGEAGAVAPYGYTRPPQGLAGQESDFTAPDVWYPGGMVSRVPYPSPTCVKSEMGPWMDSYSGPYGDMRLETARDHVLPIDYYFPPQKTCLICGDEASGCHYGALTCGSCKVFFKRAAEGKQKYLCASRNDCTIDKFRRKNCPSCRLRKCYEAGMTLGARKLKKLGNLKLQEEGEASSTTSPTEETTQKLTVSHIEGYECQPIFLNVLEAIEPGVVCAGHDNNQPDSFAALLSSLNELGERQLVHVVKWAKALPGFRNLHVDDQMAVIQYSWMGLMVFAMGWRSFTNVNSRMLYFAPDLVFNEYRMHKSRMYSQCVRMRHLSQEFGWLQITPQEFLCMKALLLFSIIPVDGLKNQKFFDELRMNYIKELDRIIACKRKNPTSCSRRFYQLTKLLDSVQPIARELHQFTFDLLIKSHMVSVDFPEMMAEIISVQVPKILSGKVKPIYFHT

B1: AR-N (aa 36-553), in vitro translated (receptor)
chain: NPGPRHPEAASAAPPGASLLLLQQQQQQQQQQQQQQQQQQQQQETSPRQQQQQQGEDGSPQAHRRGPTGYLVLDEEQQPSQPQSALECHPERGCVPEPGAAVAASKGLPQQLPAPPDEDDSAAPSTLSLLGPTFPGLSSCSADLKDILSEASTMQLLQQQQQEAVSEGSSSGRAREASGAPTSSKDNYLGGTSTISDNAKELCKAVSVSMGLGVEALEHLSPGEQLRGDCMYAPLLGVPPAVRPTPCAPLAECKGSLLDDSAGKSTEDTAEYSPFKGGYTKGLEGESLGCSGSAAAGSSGTLELPSTLSLYKSGALDEAAAYQSRDYYNFPLALAGPPPPPPPPHPHARIKLENPLDYGSAWAAAAAQCRYGDLASLHGAGAAGPGSGSPSAAASSSWHTLFTAEEGQLYGPCGGGGGGGGGGGGGGGGGGGGGGGGEAGAVAPYGYTRPPQGLAGQESDFTAPDVWYPGGMVSRVPYPSPTCVKSEMGPWMDSYSGPYGDMRLETARDHVLPIDYYF
modifications: [35S]-methionine-labeled
notes: also called AR N-terminal
Question: Does B1 bind [1]?
Answer: no binding

Question: Does B1 bind [2]?
Answer: no binding

B2: VP16 AD fused full-length ARA55 (other)
chain: MPRSGAPKERPAEPLTPPPSYGHQPTGQSGESSGASGDKDHLYSTVCKPRSPKPAAPAAPPFSSSSGVLGTGLCELDRLLQELNATQFNITDEIMSQFPSSKVASGEQKEDQSEDKKRPSLPSSPSPGLPKASATSATLELDRLMASLPDFRVQNHLPASGPTQPPVVSSTNEGSPSPPEPTAKGSLDTMLGLLQSDLSRRGVPTQAKGLCGSCNKPIAGQVVTALGRAWHPEHFVCGGCSTALGGSSFFEKDGAPFCPECYFERFSPRCGFCNQPIRHKMVTALGTHWHPEHFCCVSCGEPFGDEGFHEREGRPYCRRDFLQLFAPRCQGCQGPILDNYISALSLLWHPDCFVCRECFAPFSGGSFFEHEGRPLCENHFHARRGSLCPTCGLPVTGRCVSALGRRFHPDHFACTFCLRPLTKGSFQERAGKPYCQPCFLKLFG
notes: also called VP16-ARA55
Question: Does B2 bind [3]?
Answer: no binding

B3: PR-LBD (mammalian two-hybrid construct) (receptor, UniProt P06401 679-933, looked up)
chain: QDIQLIPPLINLLMSIEPDVIYAGHDNTKPDTSSSLLTSLNQLGERQLLSVVKWSKSLPGFRNLHIDDQITLIQYSWMSLMVFGLGWRSYKHVSGQMLYFAPDLILNEQRMKESSFYSLCLTMWQIPQEFVKLQVSQEEFLCMKVLLLLNTIPLEGLRSQTQFEEMRSSYIRELIKAIGLRQKGVVSSSQRFYQLTKLLDNLHDLVKQLHLYCLNTFIQSRALSVEFPEMMSEVIAAQLPKILAGMVKPLLFHKK
notes: domain: LBD; Construct not described
Question: Does B3 bind [4]?
Answer: no binding
